In paper PMC4440733 (PLoS ONE, 2015):

Legend:
His-tagged EGFR protein = molecular target: T1, His-tagged EGFR protein (Homo sapiens (species , human …, UniProt P00533)); test: ELISA; plates coated with anti-his antibody; His-tagged EGFR or ErbB3 captured in PBS with 1% BSA, 1 h RT; gradient-diluted antibodies or DVD-Ig proteins 1 h RT; detected with HRP-conjugated goat-anti-human antibodies; conditions: both partners purified
T1 construct: Epidermal growth factor receptor (EGFR); also called epidermal growth factor receptor; source: bought: Invitrogen

His-tagged ErbB3 protein = molecular target: T2, His-tagged ErbB3 protein (Homo sapiens (species , human …, UniProt P21860)); test: as above; conditions: both partners purified
T2 construct: Receptor tyrosine-protein kinase ErbB3; also called receptor tyrosine-protein kinase 3; source: bought: Invitrogen
T2 sequence (P21860 20-643): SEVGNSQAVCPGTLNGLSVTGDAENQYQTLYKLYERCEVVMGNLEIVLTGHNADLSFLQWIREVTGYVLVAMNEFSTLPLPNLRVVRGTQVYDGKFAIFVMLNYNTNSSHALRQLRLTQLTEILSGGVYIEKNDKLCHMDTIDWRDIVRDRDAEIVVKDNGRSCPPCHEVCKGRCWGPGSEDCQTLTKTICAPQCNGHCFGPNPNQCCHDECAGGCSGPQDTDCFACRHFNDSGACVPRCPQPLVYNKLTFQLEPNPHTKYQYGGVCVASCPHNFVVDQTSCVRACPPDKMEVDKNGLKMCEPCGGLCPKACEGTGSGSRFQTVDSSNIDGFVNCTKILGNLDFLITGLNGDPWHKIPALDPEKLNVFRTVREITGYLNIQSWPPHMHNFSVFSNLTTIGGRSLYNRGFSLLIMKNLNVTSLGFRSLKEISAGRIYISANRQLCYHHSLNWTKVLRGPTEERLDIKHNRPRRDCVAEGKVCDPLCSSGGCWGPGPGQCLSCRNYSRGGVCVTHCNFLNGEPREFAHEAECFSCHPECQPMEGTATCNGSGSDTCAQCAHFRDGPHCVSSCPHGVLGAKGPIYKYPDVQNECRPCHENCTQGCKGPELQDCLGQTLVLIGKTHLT

EC50 (His-tagged EGFR protein): 1.3 nM
EC50 (His-tagged ErbB3 protein): 5.7 nM
B1: anti-EGFR/ErbB3 bispecific Ab (bsAb), generated from published MEHD7945A sequences (bispecific antibody, V domains shown)
VH: EVQLVESGGGLVQPGGSLRLSCAASGFTLSGDWIHWVRQAPGKGLEWVGEISAAGGYTDYADSVKGRFTISADTSKNTAYLQMNSLRAEDTAVYYCARESRVSFEAAMDYWGQGTLVTVSS
VL: DIQMTQSPSSLSASVGDRVTITCRASQNIATDVAWYQQKPGKAPKLLIYSASFLYSGVPSRFSGSGSGTDFTLTISSLQPEDFATYYCQQSEPEPYTFGQGTKVEIK
notes: also called anti-EGFR/ErbB3 bsAb; two-in-one antibody; source: human embryonic kidney 293 cells, transient, purified (protein A)
